Values joined by “and” are separate entries in the source; they are usually repeats but may differ in a detail not shown here. Equal values may be shown once.

Assay [1] concerns the target E. coli initiation factor 2 (IF2) (E. coli) (UniProt P0A705). In words: BLI; biotinylated protein ([…] load) immobilised on High Precision Streptavidin (SAX) tips, E. coli 70S ribosome as analyte; Octet RED96e, 30 °C, 1,000 rpm; ribosome buffer 20 mM Tris HCl pH 7.5, 60 mM NH4Cl, 7.5 mM Mg(CH3COO)2, 0.5 mM EDTA, 6 mM βME with 0.1% BSA and 0.02% Tween-20; IF2 pre-incubated with GDPNP; Kd from the fit of equilibrium responses, double-referenced. (In BLI a coated tip is dipped into the sample, and binding shifts an interference pattern.)

Assay [2] has as its target P. falciparum translation enhancing factor C-terminal domain (PTEF-CTD) (P. falciparum). Described as above.

As a reminder, the Kd is the free concentration of one partner at which half of the binding sites on the other are occupied at equilibrium, for simple one-to-one binding. With E. coli 70S ribosome (complex), the Kd was 0.0093 µM and 0.0027 µM and 0.0015 µM in assay [1]; 0.426 µM and 0.313 µM and 0.515 µM in assay [2].

The record behind these values is article PMC11325027.
